Values quoted from earlier work as cited in paper PMC9760423.

Assays:
[1] = molecular target: Cdc4 (Saccharomyces cerevisiae) (UniProt P07834)
4E-BP2 (Homo sapiens) = 4E-BP2 (Homo sapiens) (UniProt Q13542)
Chain of UniProt Q13542 (Q13542 whole entry): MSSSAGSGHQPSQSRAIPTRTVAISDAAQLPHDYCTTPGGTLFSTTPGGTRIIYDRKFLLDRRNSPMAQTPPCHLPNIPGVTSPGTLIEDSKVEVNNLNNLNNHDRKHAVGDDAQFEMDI

Chain of UniProt P07834 (P07834 whole entry): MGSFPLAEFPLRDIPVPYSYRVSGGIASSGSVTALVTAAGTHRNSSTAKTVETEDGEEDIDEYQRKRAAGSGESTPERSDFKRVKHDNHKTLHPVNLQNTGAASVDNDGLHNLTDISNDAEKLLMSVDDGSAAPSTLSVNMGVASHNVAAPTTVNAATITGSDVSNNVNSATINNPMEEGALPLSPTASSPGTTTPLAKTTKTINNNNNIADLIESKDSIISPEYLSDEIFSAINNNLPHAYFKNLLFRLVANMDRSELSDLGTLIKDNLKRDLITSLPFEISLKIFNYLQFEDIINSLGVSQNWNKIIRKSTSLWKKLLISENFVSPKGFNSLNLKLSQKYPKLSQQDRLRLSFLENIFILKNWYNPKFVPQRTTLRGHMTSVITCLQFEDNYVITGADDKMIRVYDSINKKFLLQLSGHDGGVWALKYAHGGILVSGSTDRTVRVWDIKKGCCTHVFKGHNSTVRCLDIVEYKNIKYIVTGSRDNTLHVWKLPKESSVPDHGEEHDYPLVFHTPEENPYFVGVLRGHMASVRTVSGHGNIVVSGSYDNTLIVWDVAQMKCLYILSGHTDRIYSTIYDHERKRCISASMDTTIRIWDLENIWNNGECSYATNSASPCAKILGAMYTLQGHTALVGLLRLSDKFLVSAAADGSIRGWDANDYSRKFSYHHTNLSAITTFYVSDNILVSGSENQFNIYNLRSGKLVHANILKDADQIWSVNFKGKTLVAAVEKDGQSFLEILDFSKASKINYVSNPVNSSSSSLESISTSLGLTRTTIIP

Substance | Kd [1] [µM] | Kd (4E-BP2 (Homo sapiens)) [µM]
Sic1 (from UniProt P38634) | 1 | –
eIF4E (from UniProt P06730) | – | 0.0032
